This note sets out measurements from the nanobody polyreactivity screen of Harvey et al. (2022).

The nature of the series: yeast display, Sf9 membrane polyspecificity reagent, FACS + sequencing; frameworks hold sequencing errors. The method, boiled down:
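Galactose-induced (36–48 hours) yeast carrying a synthetic nanobody display library were exposed to 10% biotinylated, detergent-solubilized Sf9 membrane reagent at 4 °C for 1 hour. FACS followed streptavidin microbead enrichment, using low and high (top ~1%) gates for expression (anti-HA) and reagent binding (streptavidin). Colony PCR, MiSeq 2 × 250 sequencing and CDR-length filtering followed. Labels for polyreactivity reflect the gate of origin.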
“QVQLVESGGGLVQAGGSLRLSCAASGITLGAYAMGWYRQAPGKERELVAAISRSGGSTYYADSVKGRFTISRDNAKNTVYLQMNSLKPEDTAVYYCNAGITHGYDYWGQGTQLTVSS”: the “polyreactivity (PSR sort gate)” value is on record as “high polyreactivity”. For “QVQLVESGGGLVQAGGSLRLSCAASGITLGGNGMGWYRQAPGKERELVAAISQSGGTTYYADSVKGRFTISRDNAKNTVYLQMNSLKPEDTAVYYCNALWRGHGRYNYWGQGTQVTVSS”, the “polyreactivity (PSR sort gate)” value is “low polyreactivity”. With “QVQLVESGGGLVQAGGSLRLSCAASGITLGRYAMGWYRQAPGKERALVAAIPRSGGSTYYADSVKGRFTISRDNAKNTVYLQMNSLKPEDTAVYYCNRRVYPTSDYDYWGQGTQVTVSS” the entry was “high polyreactivity”; with “QVQLVESGGGLVQAGGSLRLSCAASGITLGYYAMGWYRQAPGKERELVAAISYRGGNTYYADSVKGRFTISRDNAKNTVYLQMNSLKPEDTAVYYCNADLGYESGWWSKYDYWGQGNQVTVSS”, “low polyreactivity”. For “QVQLVESGGGLVQAGGSLRLSCAASGITLGYYVMGCYRPAPGKERELVAAISSSGGRTYYADSVKGRFTISRDTAKNTVYLQMNCLKPEDTAVYYCAADVGRGIYDYWGQGNQVTVSS”, the “polyreactivity (PSR sort gate)” value was “low polyreactivity”. The value for “QVQLVESGGGLVQAGGSLRLSCAASGITLKRYAMGWYRQAPGTERELVAAITTSGGSTYYADSVKGRFTISRDTAKNTVYLQMNSLKPEDTAVYYCNAEDYWGKYYYWGQGTQVTVSS” was “low polyreactivity”; that for “QVQLVESGGGLVQAGGSLRLSCAASGITLLVNAMGWYRQAPGKERELVAAISGSSGGSTYYADSVKGRFTISRDNAKNTVYLQMNSLKPEDTAVYYCAKRKWYWGLSYIYDSWGQGTQVTVSS” was “low polyreactivity”. As for “QVQLVESGGGLVQAGGSLRLSCAASGITLRYYAMGWYRQAPGKERELVAAITYSGTNTRYADSVKGRFTISRDNAKNTVYFQMNSLKPEDTAVYYCAARNGFGSPQMGYWGQGTQVTVSS”, the “polyreactivity (PSR sort gate)” value was “high polyreactivity”.

In the case of “QVQLVESGGGLVQAGGSLRLSCAASGITLSIYAMGWYRQAPGKERELVAAINGNGGSTYYADSVKGRFTISRDNAKNTVYLQMNSLKPEDTAVYYCAVTDYVYEHDDYWGQGTEVTVSS”, the “polyreactivity (PSR sort gate)” value is listed as “low polyreactivity”.

As for “QVQLVESGGGLVQAGGSLRLSCAASGITLSLYAMGWYRQAPGKERELVAAISRGGGRTYYADSVKGRFTISRDNAKNTVYLQMNSLKPEDTAVYYCNAYRRSYRWYGDLGEYWGQGTQVTVSS”, the “polyreactivity (PSR sort gate)” value is recorded as “high polyreactivity”.

For “QVQLVESGGGLVQAGGSLRLSCAASGITLTIYTMGWYRQAPGKERELVAAINWSGTRTYYADSVKGRFTISRDNAKNTVYFQMNSLKPEDTAVYYCAATTYRYPNILGYDYWGQGTQVSVSS”, the “polyreactivity (PSR sort gate)” value is given as “high polyreactivity”. The value for “QVQLVESGGGLVQAGGSLRLSCAASGITLTRYAMGWYRQAPGKERELVAAITWSGGSTYYADSVKGRFTISRDNAKNTVYLQMNSLKPEDTAVYYCAAEYYEWVFWGYDYWGQGTQVTVSS” was “high polyreactivity”; that for “QVQLVESGGGLVQAGGSLRLSCAASGITLVANTMGWYRQAPGKERELVATITSSGGSTYYADSVKGRFTISRDNAMNTVYLQMISLKPEDTAVYYCAASDLRYRGNYVYLPSEYWGQGTQVNVSS” was “low polyreactivity”. With “QVQLVESGGGLVQAGGSLRLSCAASGITLYFYAMGWYRQAPGKERELVAAISRGGRTYYADSVKGRFTISRDNAKNTVYLQMNSLKPEDTAVYYCAARYTSEYSAFDYWGQGTQVTVSS” the entry was “low polyreactivity”. Turning to “QVQLVESGGGLVQAGGSLRLSCAASGITLYFYAMGWYRQAPGKERELVAGISGSVGSTHYADSVKGRFTISRDNAKNTVYLQMNSLKPEDTAVYYCAARYPFLRPKVNYWGQGTQVTVSS”, the “polyreactivity (PSR sort gate)” value is “high polyreactivity”. On to “QVQLVESGGGLVQAGGSLRLSCAASGITLYGYAMGWYRQAPGKEREFVAAISRSGDRTYYADSVKGRFTISRDNAKNTVYLQMNSLKPEDTAVYYCNAWRYDYWGQGTQVTVSS”, for which the “polyreactivity (PSR sort gate)” value is given as “high polyreactivity”. For “QVQLVESGGGLVQAGGSLRLSCAASGITLYRYVMGWYRQAPGKERELVADISGRGTSTYYADSVKGRFTISRDNAKNTVYLQMNSLKPEDTAVYYCNAEYTKTGALVIPYTYYYAEDYWGQGTQVTVSS”, the “polyreactivity (PSR sort gate)” value is recorded as “low polyreactivity”.

Consider “QVQLVESGGGLVQAGGSLRLSCAASGITLYYYTMGWYRQAPGKERELVAAISGSGGSTYYADSVKGRFTISRDNAKNTVYLQMNSLKPEDTAVYYCNTARSLKNHFYKYDYWGQGTQVTVSS”, for which the “polyreactivity (PSR sort gate)” value is given as “high polyreactivity”. The value for “QVQLVESGGGLVQAGGSLRLSCAASGITSQSYAMGWYRQAPGKERELVAGISASGGRTFYADSVKGRFTISRDNAKNTVYLQMNSLKPEDTAVYYCNKLSSDSYNYWGQGTQVTVSS” was “high polyreactivity”; that for “QVQLVESGGGLVQAGGSLRLSCAASGITSSAYAMGWYRQAPGKERELVARITWSGGRTHYADSVKGRFTISRDNAKNTVYLQMNSLKPEDTAVYYGYWLGYKEDDYWGQGTQVTVSS” was “high polyreactivity”; that for “QVQLVESGGGLVQAGGSLRLSCAASGITSSRYAMGLYRQAPGKVRELVAAISSSGGSTYYADSVKGRFTSSRDNAKTTVYLQLISLKPEDTAVYYCNVVSTRLAKYTFGFWGQGTQVTVSS” was “high polyreactivity”. In the case of “QVQLVESGGGLVQAGGSLRLSCAASGITSYPYAMGWYRQAPGKERELVAAISKRGGGTYYADSVKGRFTISRDNAKNTVYLQMNSLKPEDTAVYYCAKSWGPTTYKIVPAYGYWGQGTQVTVSS”, the “polyreactivity (PSR sort gate)” value was “high polyreactivity”. As to “QVQLVESGGGLVQAGGSLRLSCAASGITYDKYAMGWYRQAPGKERELVAAITKSSGSTYYADSVKGRFTISRDNAKNTVYFQMNSLKPEDTAVYYCAAGIVYGYYYWGQGTQVTVSS”, the “polyreactivity (PSR sort gate)” value is given as “high polyreactivity”. “QVQLVESGGGLVQAGGSLRLSCAASGIYGYNAMGWYRQAPGKERELVAAITSSGTSTYYADSVKGRFTISRDNAKNTVYLQMNSLKPEDTAVYYCAALHSGTWTGYGYWGQGTQVTVSS”: the “polyreactivity (PSR sort gate)” value is “low polyreactivity”. “QVQLVESGGGLVQAGGSLRLSCAASGLALGWYRQAPGKERELVAVITSDGRTYYADSVKGRFTISRDNAKNTVYLQLNSLKPEDTAVYYCARDSRTIRYYAWFYPFRYDYWGQGTQVTVSS”: the “polyreactivity (PSR sort gate)” value is reported as “low polyreactivity”.

On to “QVQLVESGGGLVQAGGSLRLSCAASGLFFSYYAMGWYRQAPGKERELVAAINSGGSTYYADSVKGRFTISRDNAKNTVYLQMNSLKPEDTAVYYCAAHLWYHGHLFDYWGQGTQVTVSS”, for which the “polyreactivity (PSR sort gate)” value is on record as “high polyreactivity”. For “QVQLVESGGGLVQAGGSLRLSCAASGLICGFYAMGWYRQAPGKERELVADITTSGARTYYADSVKGRFTISRDNAKNTVYLQMYSLKPEDTAVYYCNKDHSSYGASGYDYWGQGTQVTVSS”, the “polyreactivity (PSR sort gate)” value is given as “low polyreactivity”.

Consider “QVQLVESGGGLVQAGGSLRLSCAASGLICTYYAMGWYRQAPGKEWEFVAGISKSTSSTYYADSVKGRFTISRDNAKNTVYLLMISLKPEDTAVYYCAAQGGRNRGYRYYWGQGTQVTLSS”, for which the “polyreactivity (PSR sort gate)” value is given as “high polyreactivity”. Take “QVQLVESGGGLVQAGGSLRLSCAASGLIFADNAMGWYRQAPGKEWELVASITLGDTSTYYADSVKGRFTISRYNAKNTVYLQMNSLKPEDTAVYYCAKDVYPSVSLYELPDDYWGQGTQVTVSS”: the “polyreactivity (PSR sort gate)” value is reported as “low polyreactivity”. For “QVQLVESGGGLVQAGGSLRLSCAASGLIFADYVMGWYRQAPGKERELVVTINQGGGSTYYADSVKGRFTISRDNAKNTVYLQMNSLKPEDTAVYYCAATWALLYAIFESYDYWGQGTQVTVSS”, the “polyreactivity (PSR sort gate)” value was “low polyreactivity”.

In the case of “QVQLVESGGGLVQAGGSLRLSCAASGLIFAINAMGWYRQAPGKEREMVAAIRWSGDSTYADSVKGRFTISRDNAKNTVYLQMNSLKREDTAVYYCAADDLLDYDYWGQGTQVTVSS”, the “polyreactivity (PSR sort gate)” value is reported as “low polyreactivity”. Consider “QVQLVESGGGLVQAGGSLRLSCAASGLIFAYAMGWYRQAPGTERELVAAISGRDGSTYYADSVKGRFTISRDNAKNTVYLQMNSLKPEDTAVYYCAKRISYLPVEMDYWGQGTQVTVSS”, for which the “polyreactivity (PSR sort gate)” value is reported as “low polyreactivity”. As for “QVQLVESGGGLVQAGGSLRLSCAASGLIFDCYARGWYRQAPGKERELVAAITYTGGSTYYADSVKGRFTISRDNAKNTDYIQMNSLKPEDTAVYYCAARRQRDRYGYWGQGTQVTVSS”, the “polyreactivity (PSR sort gate)” value is “high polyreactivity”. For the sequence “QVQLVESGGGLVQAGGSLRLSCAASGLIFDSYAMGWYRQAPGKERELVAAITYTGGSTYYADSVKGRFTISRDNAKNTVYLQMNSLKPEDTAVYYCAARRQRDRYGYWGQGTQVTVSS”, the “polyreactivity (PSR sort gate)” value is reported as “high polyreactivity”. With “QVQLVESGGGLVQAGGSLRLSCAASGLIFFFYAMGWYRQAPGKERELVAAISSGGTTNYADSVKGRFTISRDNAKNTVYLQMNSLKPEDTAVYYCAARPSTYWSLGQHYGISGYWGQGTQVTVSS”, the “polyreactivity (PSR sort gate)” value is listed as “low polyreactivity”. As to “QVQLVESGGGLVQAGGSLRLSCAASGLIFFFYAMGWYRQAPGKERELVASISGGGITYYADSVKGRFTISRDNAKNTVYLQMNSLKPEDTAVIKNDYWGQGTQVTVSS”, the “polyreactivity (PSR sort gate)” value is reported as “low polyreactivity”. Take “QVQLVESGGGLVQAGGSLRLSCAASGLIFGAYTMGWYRQAPGKERELVASITTSGDSTYYADSVKGRFTISRDNAKNTVYLQMNSLKPEDTAVYYCAAESTVGTDLGGDSWGQGTQVTVSS”: the “polyreactivity (PSR sort gate)” value is “high polyreactivity”.

For the sequence “QVQLVESGGGLVQAGGSLRLSCAASGLIFGEYDMGWYRQAPGKERELVAAISDRGTSTYYADSVKGRFTISRDNAKNTVYLQMNSLKPEDTAVYYCATDRNYYYSWEYDYWGQGTQVTVSS”, the “polyreactivity (PSR sort gate)” value is on record as “low polyreactivity”. Regarding “QVQLVESGGGLVQAGGSLRLSCAASGLIFGGNAMGWYRQAPGKERELVAAISRSTGRTYYADSVKGRFTISRDNAKNTVYLQMNSLKPEDTAVYYCNAVGYAFPSYDSWGQGTQVTVSS”, the “polyreactivity (PSR sort gate)” value is “high polyreactivity”. Consider “QVQLVESGGGLVQAGGSLRLSCAASGLIFGRYAMGWYRQAPGKERELVAAITGRGGSTYYADSVKGRFTISRDNAKNTVYLQMNSLKPEDTAVYYCNKVYNPKSYIQYDYWGQGTQVTVSS”, for which the “polyreactivity (PSR sort gate)” value is reported as “high polyreactivity”. As to “QVQLVESGGGLVQAGGSLRLSCAASGLIFGSNAMGWYRQAPGKERELVAGISGSGEHYVLRRSVKGRVTISRDNAKNTVYVPMNSLKPEDTAVYYCATYSQSSKGPAGYDYWGQGTHVTVSS”, the “polyreactivity (PSR sort gate)” value is recorded as “high polyreactivity”.
